Common to all, as to experiment: SPR; multi-cycle, equilibrium steady state affinity 1:1 binding model; biotinylated ADO or variant immobilised on a Biotin CAP chip (~2500-3000 RU), peptide injected; 4 °C; 20 mM HEPES pH 7.5, 500 mM NaCl, 10 mM DTT, 0.1% (v/v) tween-20; 50 μL/minute
Common to all, as to details: both partners purified

Assay [1] deals with T1, ADO-Y212F, biotinylated (pQE80L-Navi-ADO) (human, UniProt Q96SZ5 1-270, Y212F, biotin on the Avi tag).
T1 construct: Tag as in Dm1; source: E. coli Rosetta2(DE3), purified (Ni-NTA, SEC); not shown: Avi tag, N-terminal, kept; His6, N-terminal, kept
T1 sequence (looked up): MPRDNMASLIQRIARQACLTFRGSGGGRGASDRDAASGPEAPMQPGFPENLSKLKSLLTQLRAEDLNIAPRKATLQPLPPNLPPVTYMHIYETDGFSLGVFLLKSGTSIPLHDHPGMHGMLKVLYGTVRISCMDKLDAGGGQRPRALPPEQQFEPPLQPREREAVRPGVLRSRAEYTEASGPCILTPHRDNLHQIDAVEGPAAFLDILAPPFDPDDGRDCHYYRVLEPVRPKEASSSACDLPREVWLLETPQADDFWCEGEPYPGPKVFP
Put shortly:
(§1)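 Biotinylated full-length human ADO (wild type or engineered forms) was made in E. coli with a His tag, then purified by nickel affinity and gel filtration. It was captured on a Biotin CAP chip at about 2500–3000 RU in a Biacore T200, and peptides were flowed over it. The run was at 4 °C in HEPES pH 7.5 buffer with 500 mM NaCl, DTT and tween-20, at 50 μL/minute. Kd came from a 1:1 steady-state fit of multi-cycle equilibrium responses.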

The target in assay [2] is T2, ADO-F256A, biotinylated (pQE80L-Navi-ADO) (human, UniProt Q96SZ5 1-270, F256A, biotin on the Avi tag).
T2 construct: Tag as in Dm1; source: E. coli Rosetta2(DE3), purified (Ni-NTA, SEC); not shown: Avi tag, N-terminal, kept; His6, N-terminal, kept
T2 sequence (looked up): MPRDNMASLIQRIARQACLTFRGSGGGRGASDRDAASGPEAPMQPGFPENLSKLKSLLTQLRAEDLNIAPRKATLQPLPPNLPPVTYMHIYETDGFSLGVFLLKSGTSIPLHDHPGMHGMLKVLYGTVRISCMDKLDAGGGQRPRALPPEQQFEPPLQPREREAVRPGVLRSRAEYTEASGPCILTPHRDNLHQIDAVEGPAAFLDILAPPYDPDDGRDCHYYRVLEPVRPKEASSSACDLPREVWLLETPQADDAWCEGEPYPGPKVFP
Put shortly: as §1

In assay [3] the target is T3, ADO-Y87F, biotinylated (pQE80L-Navi-ADO) (human, UniProt Q96SZ5 1-270, Y87F, biotin on the Avi tag).
T3 construct: Tag as in Dm1; source: E. coli Rosetta2(DE3), purified (Ni-NTA, SEC); not shown: Avi tag, N-terminal, kept; His6, N-terminal, kept
T3 sequence (looked up): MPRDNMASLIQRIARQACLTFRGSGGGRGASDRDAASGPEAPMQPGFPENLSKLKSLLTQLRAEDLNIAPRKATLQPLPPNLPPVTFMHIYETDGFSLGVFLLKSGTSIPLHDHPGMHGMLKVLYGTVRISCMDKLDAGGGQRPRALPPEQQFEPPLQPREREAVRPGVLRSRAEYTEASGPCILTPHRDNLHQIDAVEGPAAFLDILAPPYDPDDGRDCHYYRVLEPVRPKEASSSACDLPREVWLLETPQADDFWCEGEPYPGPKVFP
Put shortly: as §1

In assay [4] the target is T4, ADO-I109A, biotinylated (pQE80L-Navi-ADO) (human, UniProt Q96SZ5 1-270, I109A, biotin on the Avi tag).
T4 construct: Tag as in Dm1; source: E. coli Rosetta2(DE3), purified (Ni-NTA, SEC); not shown: Avi tag, N-terminal, kept; His6, N-terminal, kept
T4 sequence (looked up): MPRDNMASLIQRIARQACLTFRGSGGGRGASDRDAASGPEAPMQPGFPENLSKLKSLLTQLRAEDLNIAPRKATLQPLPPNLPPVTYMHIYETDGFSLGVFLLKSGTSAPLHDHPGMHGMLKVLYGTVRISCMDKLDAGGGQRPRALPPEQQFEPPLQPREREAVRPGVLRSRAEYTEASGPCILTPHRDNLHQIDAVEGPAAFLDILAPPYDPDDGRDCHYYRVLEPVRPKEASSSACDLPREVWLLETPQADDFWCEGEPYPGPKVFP
The gist of the method:
as §1

Assay [5] has as its target T5, ADO-D206E, biotinylated (pQE80L-Navi-ADO) (human, UniProt Q96SZ5 1-270, D206E, biotin on the Avi tag).
T5 construct: Tag as in Dm1; source: E. coli Rosetta2(DE3), purified (Ni-NTA, SEC); not shown: Avi tag, N-terminal, kept; His6, N-terminal, kept
T5 sequence (looked up): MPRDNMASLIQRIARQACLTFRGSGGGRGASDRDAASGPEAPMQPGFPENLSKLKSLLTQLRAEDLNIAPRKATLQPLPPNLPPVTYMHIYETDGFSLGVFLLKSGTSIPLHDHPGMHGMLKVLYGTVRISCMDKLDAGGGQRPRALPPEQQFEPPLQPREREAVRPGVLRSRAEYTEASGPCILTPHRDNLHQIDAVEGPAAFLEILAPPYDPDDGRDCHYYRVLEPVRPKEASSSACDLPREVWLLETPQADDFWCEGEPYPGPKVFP
Put shortly:
as §1

This note sets out measurements from paper PMC12098869, “An mRNA-display derived cyclic peptide scaffold reveals the substrate binding interactions of an N-terminal cysteine oxidase” (Nature Communications, 2025).

A word on the Kd: it is the constant that tells how readily two partners part at equilibrium.

B1: IL32_(2-15), synthetic peptide corresponding to the methionine excised N-terminus of IL32, residues 2-15 (peptide, UniProt P24001 2-15, looked up)
peptide: CFPKVLSDDMKKLK
notes: Interleukin 32 (IL32), residues 2-15, N-terminal Cys; also called IL32 peptide; source: synthetic peptide
Take B1: the Kd in assay [1] came out at 9200 nM; in assay [2], 870 nM; in assay [3] it was 320 nM; in assay [4], 16000 nM; in assay [5] it was 1300 nM.

B2: RGS5_(2-15), synthetic peptide corresponding to the methionine excised N-terminus of RGS5, residues 2 to 15 (peptide, UniProt O15539 2-15, looked up)
peptide: CKGLAALPHSCLER
notes: Regulator of G-protein signalling 5 (RGS5), residues 2 to 15, N-terminal Cys; also called RGS5 peptide; source: synthetic peptide
Regarding B2, the values for the dissociation constant (Kd) in assay [1], in assay [3] and in assay [4] were 24000 nM, 340 nM and 1300 nM, respectively.
